Measurements from patent US20030200555A1.

Biological target: APP695-derived polypeptide (SEQ.ID.NO.: 28) having the modified sequence NLDV (SEQ.ID.NO.: 7) (human) (UniProt P05067)
Assay: cell-based or functional assay

production of Aβ in the HEK293T cells (times the level of wild type APP695): 3
Substance: β-secretase (of the HEK293T cells in which the APP β-site mutants were expressed) (from UniProt P56817 46-501) (enzyme)
